For the assay, the target named is Flag-ACRP-hCD40L.

Substance “GPI-anchored CD40 ectodomain (from UniProt P25942 21-193)” yielded an amount of transfected CD40-GPI plasmid sufficient to inhibit 50% of CD40-induced NF-κB response (luciferase reporter, 293T cells; CD40L here from 1 ng of co-transfected plasmid) of 1.4 ng.

The record behind these values is paper PMC5386471.
